Assay results taken from patent US20250011433A1 (GLIKNIK, published 2025).
Substitutions are numbered along the chain they refer to. In names and notes the source's numbering stands. Read-outs that look alike come from different tables or passages of the source. Blank lines part the entries; values can stand above or below the binder they belong to.

Columns and labels:
[1] = target: T1, FcγRI (UniProt P12314 16-288); assay: BLI (Octet)
T1 construct: also called CD64
Method: (§1) Binding of complement-preferential stradomers or parent stradomer G045c to FcγRI, FcγRIIb, FcγRIIIa, FcγRIIa, or FcRn was assessed. RU values of dissociation were measured by biolayer interferometry using a ForteBio Octet instrument. His-tagged receptor proteins were bound to the sensor tip in 1× kinetic analysis buffer from ForteBio after which the on rate of the receptor/protein was measured by transferring the sensor tip to a 1× kinetics buffer containing the purified stradomer of choice. Off rate was measured by transferring the sensor tip to a 1× kinetics buffer, and RU value was calculated from the measured maximum binding using the ForteBio software. Biolayer interferometry detects the binding between a ligand immobilized on the biosensor tip surface and an analyte in solution. When binding occurs it produces an increase in optical thickness at the biosensor tip, which results in a wavelength shift (detected as a response unit of “RU”). The maximum binding level (RU max) is the maximum possible amount of sample binding at equilibrium that saturates the amount of ligand on the sensor surface. The RU 300 is the residual sample binding after 300 seconds of dissociation and is useful to characterize the rate of dissociation of the test article from the test ligand.

[2] = target: T2, FcγRIIb (UniProt P31994 46-217, limits assumed); assay: BLI (Octet)
T2 sequence (looked up): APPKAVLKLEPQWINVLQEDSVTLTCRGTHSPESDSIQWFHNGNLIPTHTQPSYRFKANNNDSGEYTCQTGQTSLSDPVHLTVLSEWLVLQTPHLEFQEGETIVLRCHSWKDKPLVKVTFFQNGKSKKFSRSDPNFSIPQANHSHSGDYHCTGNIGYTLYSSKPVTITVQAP
Method: as §1

[3] = target: T3, C1q (UniProt P02745 23-245; P02746 28-253; P02747 29-245); assay: ELISA on coated C1q
T3 construct: bought C1q coated on ELISA plates at 1 µg/ml; also called complement C1q; complement factor C1q
T3 sequence (P02745 23-245 limits assumed, chain 1 of 3): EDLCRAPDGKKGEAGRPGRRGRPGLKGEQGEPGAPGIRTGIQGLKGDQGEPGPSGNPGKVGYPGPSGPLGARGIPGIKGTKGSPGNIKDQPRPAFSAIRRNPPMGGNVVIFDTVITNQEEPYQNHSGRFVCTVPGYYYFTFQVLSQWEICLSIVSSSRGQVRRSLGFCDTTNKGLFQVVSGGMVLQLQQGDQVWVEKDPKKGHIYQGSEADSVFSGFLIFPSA
T3 sequence (P02746 28-253 limits assumed, chain 2 of 3): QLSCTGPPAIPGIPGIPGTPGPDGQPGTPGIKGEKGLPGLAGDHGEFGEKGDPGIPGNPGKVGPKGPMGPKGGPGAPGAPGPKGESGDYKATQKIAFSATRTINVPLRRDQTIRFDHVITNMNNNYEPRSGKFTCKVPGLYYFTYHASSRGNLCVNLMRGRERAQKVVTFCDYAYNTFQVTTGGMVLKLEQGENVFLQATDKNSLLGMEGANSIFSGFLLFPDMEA
T3 sequence (P02747 29-245 limits assumed, chain 3 of 3): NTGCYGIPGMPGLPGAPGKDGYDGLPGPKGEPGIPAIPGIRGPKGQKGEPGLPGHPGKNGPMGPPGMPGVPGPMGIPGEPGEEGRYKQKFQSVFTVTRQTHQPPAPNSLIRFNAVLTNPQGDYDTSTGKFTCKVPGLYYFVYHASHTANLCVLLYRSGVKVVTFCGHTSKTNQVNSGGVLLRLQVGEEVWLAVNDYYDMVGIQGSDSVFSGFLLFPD
Method: (§2) For C1q binding, 96 well plates were coated with C1q (Sigma Cat #: C1740 1 μg/ml) overnight in PBS. After coating, plates were washed 3 times with standard wash buffer (iX PBS+0.05% Tween 20) and blocked with blocking buffer (1% BSA+1× PBS+0.05% Tween 20) for 2 hours at RT. Following blocking, plates were incubated with compound diluted in blocking buffer 100 μL/well and washed 3 times with standard washing buffer. C1q-bound compound was detected by incubation with 1:5000 biotinylated mouse anti-human IgG1(Cat #555869, BD Biosciences) and Streptavidin-HRP (Cat #: 7100-05 Southern Biotech) (100 μl/well) for 1 hour at room temperature followed by washing 3 times with washing buffer, after which color was developed using the standard TMB method according to manufacturer's protocol for 15 minutes. Absorbance was read at 450 nm.

[4] = target: T1, FcγRI; assay: BLI (Octet); remark: listed apart in the source
Method: as §1
(§3) For each stradomer in Tables 5-9, the level of canonical FcγR binding, complement C1q binding, and CDC inhibition were determined according to the methods described in Example 1.

[5] = target: T2, FcγRIIb; assay: BLI (Octet); remark: listed apart in the source
Method: as §1, §3

[6] = target: T3, C1q; assay: cell-based or functional assay
[7] = target: T3, C1q; assay: ELISA on coated C1q; remark: listed apart in the source
Method: as §2, §3

T1 sequence (P12314 16-288 limits assumed): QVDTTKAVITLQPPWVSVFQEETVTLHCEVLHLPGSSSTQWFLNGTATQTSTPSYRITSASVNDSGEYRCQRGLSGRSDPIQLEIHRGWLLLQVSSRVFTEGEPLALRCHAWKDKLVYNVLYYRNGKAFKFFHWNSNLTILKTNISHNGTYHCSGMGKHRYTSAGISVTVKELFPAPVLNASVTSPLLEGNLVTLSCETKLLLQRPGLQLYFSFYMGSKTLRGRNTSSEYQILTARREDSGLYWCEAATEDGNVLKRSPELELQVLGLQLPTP

B1: G1032 (Fc fusion)
chain: EPKSCDKTHTCPPCPAPEAAGGPSVFLFPPKPKDTLMISRTPEVTCVVVDVEFEDPEVKFNWYVDGVEVHNAKTKPREEQYNSTYRVVSVLTVLHQDWLNGKEYKCKVTNKALPAPIEKTISKAKGQPREPQVYTLPPSRDELTKNQVSLTCLVKGFYPSDIAVEWESNGQPENNYKTTPPVLDSDGSFFLYSKLTVDKSRWQQGNVFSCSVMHEALHNHYTQKSLSLSPGKERKCCVECPPCP
notes: G045c background, L234A/L235A/S267E/H268F/S324T; leader 1-20 cleaved
binding result [1]: binds | binding result [2]: binds | binding result [3]: binds

B2: G997 (Fc fusion)
chain: B1 chain with A19L, A20L
notes: G045c background, S267E/H268F/S324T; leader 1-20 cleaved
binding result [1]: binds | binding result [2]: binds | binding result [3]: binds

B3: G1101 (Fc fusion)
chain: B1 chain with E18P, A19L, A20L, E52D
notes: G045c background, E233P/S267D/H268F/S324T; leader 1-20 cleaved
binding result [4]: binds | binding result [5]: binds | CDC Inhibition (EC50, µg/mL) [6]: 5 µg/mL

B4: G1096 (Fc fusion)
chain: B1 chain with A19L, A20L, E52R, T84A
notes: G045c background, S267R/H268F/S324T/T299A; leader 1-20 cleaved
binding result [4]: binds | binding result [7]: binds

B5: G1125 (Fc fusion)
chain: B1 chain with E18P, A19L, A20L, E52H
notes: G045c background, E233P/S267H/H268F/S324T; leader 1-20 cleaved
binding result [4]: binds | binding result [5]: binds | CDC Inhibition (EC50, µg/mL) [6]: 5 µg/mL

B6: G1103 (Fc fusion)
chain: B1 chain with E18P, A19L, A20L, G21E, E52S
notes: G045c background, E233P/G236E/H268F/S324T; leader 1-20 cleaved
binding result [4]: binds | binding result [5]: binds | CDC Inhibition (EC50, µg/mL) [6]: 5 µg/mL

B7: G1129 (Fc fusion)
chain: B1 chain with E18P, A19L, A20L, G21N
notes: G045c background, E233P/G236N/S267E/H268F/S324T; leader 1-20 cleaved
binding result [4]: binds | binding result [5]: binds | CDC Inhibition (EC50, µg/mL) [6]: 5 µg/mL

B8: G1108 (Fc fusion)
chain: B1 chain with E18P, A19L, A20L, E52N
notes: G045c background, E233P/S267N/H268F/S324T; leader 1-20 cleaved
binding result [4]: binds | binding result [5]: binds | CDC Inhibition (EC50, µg/mL) [6]: 5 µg/mL

B9: G1070 (Fc fusion)
chain: B1 chain with A19L, A20L, E52K, N82A
notes: G045c background, S267K/H268F/S324T/N297A; leader 1-20 cleaved
binding result [4]: binds | binding result [7]: binds

B10: G1132 (Fc fusion)
chain: B1 chain with A19L, A20L, E52R, N82A
notes: G045c background, S267R/H268F/S324T/N297A; leader 1-20 cleaved
binding result [4]: binds | binding result [7]: binds

B11: G1107 (Fc fusion)
chain: B1 chain with A19L, A20L, E52H, T84A
notes: G045c background, S267H/H268F/S324T/T299A; leader 1-20 cleaved
binding result [4]: binds | binding result [5]: binds | CDC Inhibition (EC50, µg/mL) [6]: 12.5 µg/mL

B12: G1116 (Fc fusion)
chain: B1 chain with E18P, A19L, A20L, G21H, E52K
notes: G045c background, E233P/G236H/S267K/H268F/S324T; leader 1-20 cleaved
binding result [4]: binds | binding result [7]: binds

B13: G1122 (Fc fusion)
chain: B1 chain with E18P, A19L, A20L, G21H, E52Q
notes: G045c background, E233P/G236H/S267Q/H268F/S324T; leader 1-20 cleaved
binding result [4]: binds | binding result [5]: binds | CDC Inhibition (EC50, µg/mL) [6]: 5 µg/mL

B14: G1104 (Fc fusion)
chain: B1 chain with E18P, A19L, A20L, G21D, E52S
notes: G045c background, E233P/G236D/H268F/S324T; leader 1-20 cleaved
binding result [4]: binds | binding result [5]: binds | CDC Inhibition (EC50, µg/mL) [6]: 5 µg/mL

B15: G1117 (Fc fusion)
chain: B1 chain with E18P, A19L, A20L, G21D, E52D
notes: G045c background, E233P/G236D/S267D/H268F/S324T; leader 1-20 cleaved
binding result [4]: binds | binding result [5]: binds | CDC Inhibition (EC50, µg/mL) [6]: 5 µg/mL

B16: G1102 (Fc fusion)
chain: B1 chain with E18P, A19L, A20L, E52Q
notes: G045c background, E233P/S267Q/H268F/S324T; leader 1-20 cleaved
binding result [4]: binds | binding result [5]: binds | CDC Inhibition (EC50, µg/mL) [6]: 7.5 µg/mL

B27: G1003 (Fc fusion)
chain: ERKCCVECPPCPEPKSCDKTHTCPPCPAPELLGGPSVFLFPPKPKDTLMISRTPEVTCVVVDVEFEDPEVKFNWYVDGVEVHNAKTKPREEQYNSTYRVVSVLTVLHQDWLNGKEYKCKVTNKALPAPIEKTISKAKGQPREPQVYTLPPSREEMTKNQVSLTCLVKGFYPSDIAVEWESNGQPENNYKTTPPVLDSDGSFFLYSKLTVDKSRWQQGNVFSCSVMHEALHNHYTQKSLSLSPGK
notes: G019 background, S267E/H268F/S324T; leader 1-20 cleaved
binding result [1]: binds | binding result [2]: binds | binding result [3]: binds

Results, then the binder that gave them:

binding result [4]: binds | binding result [5]: binds | CDC Inhibition (EC50, µg/mL) [6]: 5 µg/mL
B17: G1111 (Fc fusion)
chain: B1 chain with E18P, A19L, A20L, G21D, E52Q
notes: G045c background, E233P/G236D/S267Q/H268F/S324T; leader 1-20 cleaved

binding result [4]: binds | binding result [7]: binds
B18: G1084 (Fc fusion)
chain: B1 chain with E18P, A19L, A20L, E52K
notes: G045c background, E233P/S267K/H268F/S324T; leader 1-20 cleaved

binding result [4]: binds | binding result [7]: binds
B19: G1119 (Fc fusion)
chain: B1 chain with E18P, A19L, A20L, G21R, E52K
notes: G045c background, E233P/G236R/S267K/H268F/S324T; leader 1-20 cleaved

binding result [4]: binds | binding result [7]: binds
B20: G1112 (Fc fusion)
chain: B1 chain with E18P, A19L, A20L, G21R, E52R
notes: G045c background, E233P/G236R/S267R/H268F/S324T; leader 1-20 cleaved

binding result [4]: binds | binding result [7]: binds
B21: G1100 (Fc fusion)
chain: B1 chain with E18P, A19L, A20L, E52R
notes: G045c background, E233P/S267R/H268F/S324T; leader 1-20 cleaved

binding result [4]: binds | binding result [7]: binds
B22: G1123 (Fc fusion)
chain: B1 chain with E18P, A19L, A20L, G21Q, E52R
notes: G045c background, E233P/G236Q/S267R/H268F/S324T; leader 1-20 cleaved

binding result [4]: binds | binding result [5]: binds | CDC Inhibition (EC50, µg/mL) [6]: 15 µg/mL
B23: G1095 (Fc fusion)
chain: B1 chain with A19L, A20L, E52N, T84A
notes: G045c background, S267N/H268F/S324T/T299A; leader 1-20 cleaved

binding result [4]: binds | binding result [5]: binds | CDC Inhibition (EC50, µg/mL) [6]: 5 µg/mL
B24: G1114 (Fc fusion)
chain: B1 chain with E18P, A19L, A20L, G21Q, E52D
notes: G045c background, E233P/G236Q/S267D/H268F/S324T; leader 1-20 cleaved

binding result [4]: binds | binding result [5]: binds | CDC Inhibition (EC50, µg/mL) [6]: 5 µg/mL
B25: G1105 (Fc fusion)
chain: B1 chain with E18P, A19L, A20L, G21N, E52S
notes: G045c background, E233P/G236N/H268F/S324T; leader 1-20 cleaved

binding result [4]: binds | binding result [7]: binds
B26: G1093 (Fc fusion)
chain: B1 chain with A19L, A20L, E52K, T84A
notes: G045c background, S267K/H268F/S324T/T299A; leader 1-20 cleaved

binding result [1]: binds | binding result [2]: binds | binding result [3]: binds
B28: G1049 (Fc fusion)
chain: B27 chain with L125F, E153D, M155L
notes: G019 background, S267E/H268F/S324T/L328F; leader 1-20 cleaved
